Assay results reported in patent US20090074793A1 (published 2009).
Values belong to the binder of their own block, whether it stands above or below them.

Legend:
[1] = molecular target: T1, hIL-4R on engineered HK293 cells (human STAT6 and STAT6 luciferase reporter) (human, UniProt P24394 26-232); assay: cell-based or functional assay
T1 sequence: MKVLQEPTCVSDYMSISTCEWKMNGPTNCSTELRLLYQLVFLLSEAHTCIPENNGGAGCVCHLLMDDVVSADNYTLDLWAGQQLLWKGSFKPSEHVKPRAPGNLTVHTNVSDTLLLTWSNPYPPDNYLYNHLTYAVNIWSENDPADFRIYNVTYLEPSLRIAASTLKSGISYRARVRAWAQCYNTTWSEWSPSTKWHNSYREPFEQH

[2] = molecular target: T2, monomeric hIL-4R (R&D Systems) (human, UniProt P24394 26-232, limits assumed); assay: SPR (BIACORE 2000), antibody captured on anti-hFc, monomeric hIL-4R, 25° C.
T2 construct: Bought protein (R&D Systems); also called human IL-4 receptor alpha
T2 sequence: T1 sequence
Experimental: (§1) Briefly, antibody was captured on a goat anti-hFc polyclonal antibody surface created through direct coupling to a BIACORE™ chip to form a captured antibody surface. Various concentrations (ranging from 50 nM to 12.5 nM) of monomeric hIL-4R (R&D Systems) or dimeric hIL-4R-mFc were injected over the captured antibody surface at 10 μl/min for 2.5 min at either 25° C. or 37° C. Binding of antigen to antibody and dissociation of the bound complex, were monitored in real time. Equilibrium dissociation constants (KD) and dissociation rate constants were ascertained by performing kinetic analysis using BIA evaluation software. BIA evaluation software was also used to calculate the half-life of antigen/antibody complex dissociation (T_{1/2}). […] Control: a fully human anti-IL-4R antibody (U.S. Pat. No. 7,186, 809; SEQ ID NOs:10 and 12).

[3] = molecular target: T2, monomeric hIL-4R (R&D Systems); assay: SPR (BIACORE 2000), antibody captured on anti-hFc, monomeric hIL-4R, 37° C.
Experimental: as §1

dimeric hIL-4R-mFc [4] = molecular target: T3, dimeric hIL-4R-mFc (human, UniProt P24394 26-232); assay: SPR (BIACORE 2000), antibody captured on anti-hFc, dimeric hIL-4R-mFc, 25° C.
T3 construct: not shown: mFc (mouse Fc)
T3 sequence: T1 sequence
Experimental: as §1

dimeric hIL-4R-mFc [5] = molecular target: T3, dimeric hIL-4R-mFc; assay: SPR (BIACORE 2000), antibody captured on anti-hFc, dimeric hIL-4R-mFc, 37° C.
Experimental: as §1

dimeric hIL-4R-mFc [6] = molecular target: T3, dimeric hIL-4R-mFc; assay: ELISA-based solution competition, 25 pM hIL-4R-mFc, free receptor on biotin-hIL4 plate
Experimental: (§2) Antibody-antigen binding affinity was also assessed using an ELISA-based solution competition assay. Briefly, a 96-well MAXISORP™ plate was first coated with 5 μg/ml avidin overnight followed by BSA blocking for 1 hr. […] The plate was used to measure either free hIL-4R-mFc (dimeric hIL-4R) or free hIL-4R-myc-myc-his (hIL4R-mmh, monomeric hIL4R) in the antibody titration sample solutions. […] After 1 hr binding, the plate was washed and bound hIL-4R-mFc was detected using either an HRP-conjugated mouse anti-mFc polyclonal antibody or an HRP-conjugated goat anti-myc polyclonal antibodies. IC₅₀ values were determined (Table 2).

hIL-4R-myc-myc-his = molecular target: T4, hIL-4R-myc-myc-his (human, UniProt P24394 26-232); assay: ELISA-based solution competition, 200 pM hIL-4R-mmh, free receptor on biotin-hIL4 plate
T4 construct: also called hIL-4R-mmh; hIL4R-mmh; not shown: myc-myc-his tag
T4 sequence: T1 sequence
Experimental: as §2

[7] = molecular target: T5, mfIL-4R of the cellular bioassay (monkey (Macaca fascicularis), UniProt P24394 26-231 (human entry)); assay: cell-based or functional assay
T5 chain: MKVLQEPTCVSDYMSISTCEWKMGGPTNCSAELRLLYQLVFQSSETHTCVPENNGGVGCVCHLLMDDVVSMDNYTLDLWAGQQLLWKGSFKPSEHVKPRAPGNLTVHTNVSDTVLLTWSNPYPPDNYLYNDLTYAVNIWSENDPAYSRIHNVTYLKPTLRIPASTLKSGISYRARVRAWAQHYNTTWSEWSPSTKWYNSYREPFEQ

IC50 (pM), STAT6 luciferase bioassay, 10 pM hIL-4 [1]: 98 pM
IC50 (pM), STAT6 luciferase bioassay, 40 pM hIL-13 [1]: 86 pM
Kd [2]: 0.274 nM
T1/2 [2]: 2.18 h
Kd [3]: 0.437 nM
T1/2 [3]: 0.817 h
Kd (dimeric hIL-4R-mFc [4]): 0.302 nM
T1/2 (dimeric hIL-4R-mFc [4]): 2.6 h
Kd (dimeric hIL-4R-mFc [5]): 0.314 nM
T1/2 (dimeric hIL-4R-mFc [5]): 1.93 h
IC50 (dimeric hIL-4R-mFc [6]): 0.04 nM
IC50 (hIL-4R-myc-myc-his): 0.09 nM
B1: H4H095P (antibody, V domains shown)
VH: QVQLVESGGGVVQPGRSLRLSCAASGFTFRSYGMHWVRQAPGKGLEWVAVISYDGSNKYYIDSVKGRFTISRDNSKNTLNLQMNSLRLEDTAVYYCAKEGRGGFDYWGQGTLVTVSS
VL: DIQMTQSPSSLSASVGDRVTITCRASQVINNYLAWFQQKPGKVPKSLIHAASSLQSGVPSKFSGSGSGTDFTLTISSLQPEDFATYYCQQYNSHPWTFGQGTKVEIK
notes: Human anti-hIL-4R antibody captured via anti-hFc

IC50 (pM), STAT6 luciferase bioassay, 10 pM hIL-4 [1]: 25 pM
IC50 (pM), STAT6 luciferase bioassay, 40 pM hIL-13 [1]: 19 pM
Kd [2]: 0.048 nM
T1/2 [2]: 6.02 h
Kd [3]: 0.183 nM
T1/2 [3]: 1.45 h
T1/2 (dimeric hIL-4R-mFc [4]): 4.08 h
Kd (dimeric hIL-4R-mFc [5]): 0.0381 nM
T1/2 (dimeric hIL-4R-mFc [5]): 2.72 h
IC50 (dimeric hIL-4R-mFc [6]): 0.0096 nM
IC50 (hIL-4R-myc-myc-his): 0.08 nM
B2: H4H083P (antibody, V domains shown)
VH: EVQLVESGGGLVQPGRSLRLSCEASGFTFDDYAMHWVRQAPGKGLEWVSGLSRTSVSIGYADSVKGRFTISRDNAKNSLYLEMNSLRPEDTALYYCAKWGTRGYFDYWGQGTLVTVSS
VL: DIQMTQSPSSVSASVGDRVTITCRASQDISIWLAWYQQSPGKAPKLLINVASRLQSGVPSRFSGSGSGTDFTLTINSLQPEDFVTYYCQQANSFPITFGQGTRLEIK
notes: as for B1

IC50, bioassay in the presence of 360 fM mfIL-4 [7]: 150 nM
IC50 (pM), STAT6 luciferase bioassay, 10 pM hIL-4 [1]: 27 pM
IC50 (pM), STAT6 luciferase bioassay, 40 pM hIL-13 [1]: 25 pM
B3: H4H098P (antibody, V domains shown)
VH: EVQLVESGGGLEQPGGSLRLSCAGSGFTFRDYAMTWVRQAPGKGLEWVSSISGSGGNTYYADSVKGRFTISRDNSKNTLYLQMNSLRAEDTAVYYCAKDRLSITIRPRYYGLDVWGQGTTVTVS
VL: DIVMTQSPLSLPVTPGEPASISCRSSQSLLYSIGYNYLDWYLQKSGQSPQLLIYLGSNRASGVPDRFSGSGSGTDFTLKISRVEAEDVGFYYCMQALQTPYTFGQGTKLEIK
